Data as given in patent publication US20230213527A1, “COMPOSITIONS AND METHODS FOR POLYPEPTIDE ANALYSIS” (Quantum-Si Incorporated, priority 2021, published 2023).
Square brackets hold non-standard residues; d marks the D form. Ends that are not written are not given here. Cit = NC(=O)NCCC[C@H](N)C(=O)O

What was measured:
PS621 = biological target: T1, PS621 (Kluyveromyces lactis, UniProt O60014, E174T/N105S/N176F/R116K/S153T/V146T); test: Dynamic single-molecule sequencing, recognition by PS621; type: binding; conditions: for PW of ADMA-X / RS ADMA-X: ADMA peptide; for PW of ADMA-X / RS ADMA-X / PW of R-X / RS R-X: average of 10 sequencing reactions; for RS ADMA-X / RS R-X: RS duration; for PW of R-X / RS R-X: unmodified arginine peptide; for Median interpulse duration (IPD) of arginine recognition by PS621 / Binding with the recognizer PS621: P38MAPKa-derived peptides; for Binding with the recognizer PS621: residue at position 2
T1 construct: PS621; […]
T1 sequence (O60014 other isoform, or with tags, fused parts or gaps N105S/R116K/V146T/S153T/E174T/N176F): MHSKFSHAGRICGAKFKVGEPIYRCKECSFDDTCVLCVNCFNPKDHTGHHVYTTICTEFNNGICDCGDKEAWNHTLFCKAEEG
Text: PTM detection involved isolating peptides and subjecting them to a real-time single-molecule protein sequencing reaction. Proteins were first digested into peptide fragments and conjugated C-terminally to macromolecular linkers. The peptide complexes were immobilized at the bottom of nanoscale wells on a semiconductor chip, resulting in single peptide molecules with exposed N-termini ready for sequencing. During the sequencing reaction, the surface-immobilized peptides were exposed to a solution containing dye-labeled NAA recognizers that bound on and off to their cognate NAAs with characteristic kinetic properties. Aminopeptidases in solution sequentially removed individual NAAs to expose subsequent amino acids for recognition. Fluorescence lifetime, intensity, and kinetic data were collected in real time and analyzed to determine amino acid sequence and PTM content.
The trace-level output included distinct pulsing regions called recognition segments (RSs); each RS corresponded to a period of time between aminopeptidase cleavage events during which an NAA recognizer bound on and off to its exposed target NAA. Chemical modifications to a target NAA or to a nearby downstream amino acid can modulate recognizer affinity, resulting in a characteristic change in the average pulse duration (PD) during an RS relative to an unmodified peptide. These modifications can also influence the rate of aminopeptidase cleavage of an NAA, resulting in a characteristic change in average duration of the corresponding RS.
Synthetic peptides corresponding to residues 69 to 76 of P38MAPKa were generated in three versions containing either arginine, ADMA, or SDMA at position 2: YRELRLLK (SEQ ID NO: 834), YRADMAELRLLK (SEQ ID NO: 835), and YRSDMAELRLLK (SEQ ID NO: 836). Each peptide was sequenced using three recognizers—PS610 (F, Y, W), PS961 (L, I, V), and PS621 (R)—and data were analyzed to identify RSs, determine the mean PD of each RS, and characterize the kinetic signature of each peptide.
In this example, sequencing reactions were performed using PS621 (R), PS610 (FYW), and PS961 (LIV) recognizers for 9 pairs of peptides. Each pair comprised one peptide comprising an unmodified arginine residue followed by a non-arginine amino acid (referred to as an R-X peptide) and one peptide having an identical sequence except that the unmodified arginine was modified to be ADMA (referred to as an ADMA-X peptide).

PS961 = test: Dynamic single-molecule sequencing, recognition by PS961; type: binding, Planctomycetes; conditions: for RS mean PD, N-terminal leucine by PS961 / RS mean duration for leucine recognition: leucine followed by threonine or phosphothreonine; for Median PD, recognition of N-terminal leucine by PS961: peptides RLAFAYPDDD, RLIFAYPDDD, RLVFAYPDDD
Chain of PS961 (as listed by the source): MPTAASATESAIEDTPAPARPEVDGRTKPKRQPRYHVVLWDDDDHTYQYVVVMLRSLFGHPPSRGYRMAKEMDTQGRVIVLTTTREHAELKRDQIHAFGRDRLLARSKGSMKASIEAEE
Experimental: (§1) The semiconductor chip was placed in the sequencing device and a chip check was performed to test electronic circuit function and to optimize laser coupling alignment. The chip was then removed from the device socket and the chip was washed twice with 50 μL of 70% isopropanol, followed by four washes with 30 μL of wash buffer (50 mM MOPS pH 8.0, 60 mM potassium acetate, 50 mM glucose, 20 mM magnesium acetate, and surfactant mix) through a flow cell attached to the chip. A second chip check was then performed. The laser was then blocked via an integrated software-controlled shutter, peptide complex was added to a final concentration of 1-10 nM and mixed thoroughly, and the chip was incubated for 15 min. The chip was then washed six times with wash buffer, followed by addition of an imaging solution (wash buffer with 5 mM Trolox and an oxygen scavenging system). The laser was unblocked and the occupancy percentage (target 10-30%, Poisson distributed) was recorded by acquiring a photobleaching signal from a fluorophore attached to the peptide complex during 5 min of laser illumination. For NAA recognition-only assays, after peptide loading, labeled recognizer was added to a final concentration of 50 nM PS610, 100 nM PS691, or 250 nM PS961 (as indicated according to the experiment), and data was recorded for 10 hours. For dynamic sequencing assays, after peptide loading, a mixture of labeled recognizers was added to obtain final concentrations of 50 nM PS610, 100 nM PS691, and 250 nM PS961. Data was recorded for 15 min. The laser was then blocked briefly and aminopeptidases were added to the sequencing reaction via the flow cell and mixed thoroughly (final concentration 2-8 μM PhTET2 and/or 20-80 μM PhTET3, as indicated according to the experiment). The laser was then unblocked, and data was recorded for 10 hours. For all runs, 30 μL of mineral oil was added to fluid reservoirs at each port of the flow cell to prevent evaporation during the run.
(§2) The measured signal on-chip comprises various noise components, the most dominant one being due to fluorescent emissions from diffusing recognizers in the reaction chamber. The pulse caller algorithm for a given reaction chamber starts by estimating the statistical properties of this background noise component. Once an estimate within certain error bounds has been established, the algorithm works in an online fashion observing new frames of data as they are generated. At each point in time, the algorithm maintains state indicating whether the signal is due to the background component only or a pulse from a recognizer-NAA interaction is being observed. The state transition from background to pulse is triggered using an edge detection test where the shift in signal is expected to be significant with respect to the background component's statistical distribution. The state transition from pulse to background is triggered when a small window of the most recent frames of the signal appears to conform to the background component's distribution again. The algorithm maintains an updated model of the background component as new background frames are observed. This provides robustness against drift in the signal intensity together with a feedback control loop that maintains a stable optical coupling of the laser into the chip based on any such detected drift. As detected pulses can be due to true recognizer-to-dipeptide interaction events as well as other occasional transient noise spikes, a downstream filter layer is employed to test the significance of pulse events based on their duration, intensity, and noise patterns within the context of the full timeline of the run and the entire dataset of reaction chambers.
Initial regions are determined by performing a sliding window calculation of pulse rate along the time dimension of a series of pulses. Regions with a mean pulse rate >1 pulse/min are then subdivided according to a greedy bisection approach.

PS610 = test: Dynamic single-molecule sequencing, recognition by PS610; type: binding, A. tumefaciens; conditions: for Median pulse duration of tyrosine recognition by PS610: P38MAPKa-derived peptides, PS610, PS961, PS621; for Pulse Width: recognizer PS610, recognition of the N-terminal amino acid
Experimental: as §1, with “The laser was then blocked via an integrated software-controlled shutter, peptide complex was added to a final concentration of 1-10 nM and mixed thoroughly, and the chip was incubated for 15 min.” left out, “For NAA recognition-only assays, after peptide loading, labeled recognizer was added to a final concentration of 50 nM PS610, 100 nM PS691, or 250 nM PS961 (as indicated according to the experiment), and data was recorded for 10 hours. For dynamic sequencing assays, after peptide loading, a mixture of labeled recognizers was added to obtain final concentrations of 50 nM PS610, 100 nM PS691, and 250 nM PS961. Data was recorded for 15 min.” left out
as §2
Initial regions are determined by performing a sliding window calculation of pulse rate along the time dimension of a series of pulses. Regions with a mean pulse rate >1 pulse/min are then subdivided according to a greedy bisection approach. Here, the pulses on the left and right of each potential split are assessed for statistically significant deviation in any of four separate pulse properties—intensity, bin ratio, pulse duration, and interpulse duration—using a Mann-Whitney U Test. To define RSs, the split point with the lowest p-value for any of the four properties is used to sub-divide the region and the process continues until no regions remain with a candidate split point with p-value <10^−5 in any comparison. In this manner, transitions from one RS to the next in a region of continuous pulsing are determined a priori on the basis of changes in fluorescence properties of pulsing kinetics.

LRADMAVAFAYPDDDK [QP946]
PW of ADMA-X (PS621): 0.32 s
RS ADMA-X (PS621): 33.8 min

LRADMAEAFAYPDDDK [QP939]
PW of ADMA-X (PS621): 0.34 s

LREAFAYPDDDK [QP938]
PW of R-X (PS621): <0.06 s

LRADMALAFAYPDDDK [QP729]
PW of ADMA-X (PS621): 0.48 s
RS ADMA-X (PS621): 48.5 min

RLTFIAYPDDD (not fully specified (residue 3, C-terminus); also: all synthetic peptides contained C-terminal Fmoc-azidolysine)
RS mean PD, N-terminal leucine by PS961 (PS961): 1.2 s
RS mean duration for leucine recognition (PS961): 8.1 min

LRVAFAYPDDDK [QP943]
RS R-X (PS621): 25.5 min
PW of R-X (PS621): 0.41 s

RLVFAYPDDD
Median PD, recognition of N-terminal leucine by PS961 (PS961): 4.21 s

YRADMAE (YRELRLLK) [YRADMAELRLLK, P38MAPKa peptide with asymmetric dimethylarginine at position 2]
Median pulse duration of tyrosine recognition by PS610 (PS610): 1.47 s
Median interpulse duration (IPD) of arginine recognition by PS621 (PS621): 5.82 s
Binding with the recognizer PS621 (PS621): binding

LRTAFAYPDDDK [QP942]
PW of R-X (PS621): <0.06 s

RLMFAYPDDD (not fully specified (residue 3, C-terminus); also: all synthetic peptides contained C-terminal Fmoc-azidolysine)
Median PD of leucine recognition, first population of traces (PS961; leucine followed by methionine (LM)): 0.86 s
Median PD of leucine recognition, second population of traces (PS961; methionine not recognized, oxidized (LMo)): 0.35 s

LRSAFAYPDDDK [QP748]
PW of R-X (PS621): <0.12 s

RLAFAYPDDD
Median PD, recognition of N-terminal leucine by PS961 (PS961): 1.29 s

LRADMAQAFAYPDDDK [QP944]
PW of ADMA-X (PS621): 0.21 s

LRAAFAYPDDDK [QP747]
PW of R-X (PS621): <0.12 s

LRIAFAYPDDDK [QP749]
RS R-X (PS621): 15.4 min
PW of R-X (PS621): 0.28 s

YRSDMAELRLLK (YRELRLLK) [P38MAPKa peptide with symmetric dimethylarginine at position 2]
Median pulse duration of tyrosine recognition by PS610 (PS610): 1.48 s
Binding with the recognizer PS621 (PS621): no binding

LRADMAYAFAYPDDDK [QP742]
PW of ADMA-X (PS621): 0.25 s
RS ADMA-X (PS621): 39.2 min

RLIFAYPDDD
Median PD, recognition of N-terminal leucine by PS961 (PS961): 2.22 s

FCitLAFAYPDDDK (F[Cit]LAFAYPDDDK-NH2; also: C-terminal azidolysine (general statement for all synthetic peptides)) [QP1029]
Pulse Width (PS610): 5.24 s

LRQAFAYPDDDK [QP941]
PW of R-X (PS621): <0.06 s

YRIAFAYPDDDK (YRIAFAYPDDDK-NH2; not fully specified (residue 2); also: all synthetic peptides contained C-terminal Fmoc-azidolysine) [QP1030]
Pulse Width (PS610): 0.77 s

RLpTFIAYPDDD
RS mean PD, N-terminal leucine by PS961 (PS961): 0.3 s
RS mean duration for leucine recognition (PS961): 130 min

LRADMAAAFAYPDDDK [QP743]
PW of ADMA-X (PS621): 0.19 s

LRYAFAYPDDDK [QP746]
RS R-X (PS621): 9.6 min
PW of R-X (PS621): 0.18 s

YRELRLLK
Median pulse duration of tyrosine recognition by PS610 (PS610): 0.69 s
Median interpulse duration (IPD) of arginine recognition by PS621 (PS621): 10.05 s
Binding with the recognizer PS621 (PS621): binding

YCitIAFAYPDDDK (Y[Cit]IAFAYPDDDK-NH2; also: C-terminal azidolysine (general statement for all synthetic peptides)) [QP1031]
Pulse Width (PS610): 1.12 s

LRADMATAFAYPDDDK [QP945]
PW of ADMA-X (PS621): <0.06 s

FRLAFAYPDDDK (FRLAFAYPDDDK-NH2; not fully specified (residue 2); also: all synthetic peptides contained C-terminal Fmoc-azidolysine) [QP1028]
Pulse Width (PS610): 4.94 s

LRADMAIAFAYPDDDK [QP745]
PW of ADMA-X (PS621): 0.32 s
RS ADMA-X (PS621): 46.9 min

LRADMASAFAYPDDDK [QP744]
PW of ADMA-X (PS621): 0.55 s
